Data on 2 substances can be found in patent publication US20220135665A1.

In this experiment the target is recombinant human VEGF165 protein (human) (UniProt P15692). In words: cell-based or functional assay.

Conbercept (Fc fusion), sequence (chain): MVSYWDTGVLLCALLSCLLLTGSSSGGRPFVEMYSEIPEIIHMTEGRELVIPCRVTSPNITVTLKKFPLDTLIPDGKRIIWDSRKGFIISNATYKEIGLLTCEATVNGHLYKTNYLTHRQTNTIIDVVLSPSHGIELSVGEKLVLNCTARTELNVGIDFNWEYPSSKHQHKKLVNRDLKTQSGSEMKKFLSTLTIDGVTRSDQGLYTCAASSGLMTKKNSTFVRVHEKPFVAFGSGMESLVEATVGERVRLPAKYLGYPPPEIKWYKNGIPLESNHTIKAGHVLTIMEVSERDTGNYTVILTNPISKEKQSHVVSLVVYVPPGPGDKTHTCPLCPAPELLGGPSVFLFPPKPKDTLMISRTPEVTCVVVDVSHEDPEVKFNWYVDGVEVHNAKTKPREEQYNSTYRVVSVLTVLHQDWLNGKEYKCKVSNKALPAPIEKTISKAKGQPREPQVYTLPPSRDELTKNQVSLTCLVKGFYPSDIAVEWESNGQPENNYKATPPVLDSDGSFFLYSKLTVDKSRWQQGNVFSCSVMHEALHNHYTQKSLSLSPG
EYLEA (Aflibercept) (Fc fusion), sequence (chain): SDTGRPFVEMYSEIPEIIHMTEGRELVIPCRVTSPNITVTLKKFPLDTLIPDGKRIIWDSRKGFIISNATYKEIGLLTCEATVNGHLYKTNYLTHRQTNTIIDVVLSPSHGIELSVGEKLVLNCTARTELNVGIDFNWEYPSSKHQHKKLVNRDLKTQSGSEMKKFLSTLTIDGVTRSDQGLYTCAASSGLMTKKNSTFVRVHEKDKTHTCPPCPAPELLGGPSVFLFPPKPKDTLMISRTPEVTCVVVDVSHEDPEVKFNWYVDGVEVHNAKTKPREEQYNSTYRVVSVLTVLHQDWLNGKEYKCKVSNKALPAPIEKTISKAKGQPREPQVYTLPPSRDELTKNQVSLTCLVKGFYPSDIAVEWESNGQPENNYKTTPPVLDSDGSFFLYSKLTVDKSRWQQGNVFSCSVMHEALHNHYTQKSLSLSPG

For the substance Conbercept (Fc fusion), the EC50(nM), neutralization of HUVEC proliferation, VEGF165 at 10 ng/mL was 0.18 nM; the EC50(nM), neutralization of HUVEC proliferation, VEGF165 at 100 ng/mL was 2.86 nM; the EC50(nM), neutralization of HUVEC proliferation, VEGF165 at 1000 ng/mL came to 29 nM; the Maximum neutralization rate (%), VEGF165 at 10 ng/mL came to 102%. Besides, the Maximum neutralization rate (%), VEGF165 at 100 ng/mL is 99.7% and the Maximum neutralization rate (%), VEGF165 at 1000 ng/mL stood at 108%.

As to EYLEA (Aflibercept) (Fc fusion), the EC50(nM), neutralization of HUVEC proliferation, VEGF165 at 10 ng/mL was found to be 0.15 nM; the EC50(nM), neutralization of HUVEC proliferation, VEGF165 at 100 ng/mL was 2.56 nM; the EC50(nM), neutralization of HUVEC proliferation, VEGF165 at 1000 ng/mL stood at 32.4 nM; the Maximum neutralization rate (%), VEGF165 at 10 ng/mL came to 92.7%. Moreover, the Maximum neutralization rate (%), VEGF165 at 100 ng/mL stood at 89.6% and the Maximum neutralization rate (%), VEGF165 at 1000 ng/mL was 76.7%.
